We go through two molecules from patent US7018791B1, “Binding complexes” (Institute of Cancer Research: Royal Cancer Hospital, priority 1997, dated 2006).

* marks the point of attachment. Biotin = O=C1N[C@H]2[C@H](CS[C@H]2CCCCC(=O)*)N1

In assay [1] the target is T1, CCT.
T1 construct: Take 20S mouse testis sucrose gradient fractions enriched in CCT; from tissue; host or cells: mouse testis, 20S sucrose gradient fractions
Nature of the assay: CCT binding to immobilised actin peptide array (Pepset pins, MAb 91a ELISA, absorbance 410 nm). The settings on record: FIG. 9; mouse testis CCT. The source says:
Peptides of 15 amino acids in length were synthesised on polyethylene pins mounted on blocks according to the method of Maeji et al (Maeji N. J. et al, 1994) and commercially available under the trade name of Pepsets™ from Chiron Mimotopes. The sequence of the peptides were such that they defined the full length of the actin sequence with a 5 amino acid overlap between the sequential peptides, and selected peptides representing key known structures in actin (Table 2 annotated). The peptides are synthesised on polyethylene pins which are presented to be compatible with standard 96 well microtitre plates. The pins become the solid phase on which interactions with CCT complexes can be probed. The method is described below. • 1. Take Pepset pins from storage at −20(° C.) and equilibrate at room temperature. • 2. Wash pins with PBS for 10 minutes at room temperature on a shaking table. • 3. Incubate pins with blocking buffer (2% w/v BSA 0.1% Tween 20 in PBS) for 60 minutes at room temperature on a shaker. • 4. Wash pins with PBS for 10 minutes at room temperature on a shaker (times 1) • 5. […] Remove pins from the microtitre plate and read the microtitre plate at 410 nm on a Dynatech ELISA plate reader. • 16. Results are expressed as a 410 nm absorbance reading for each well corresponding to each unique substrate peptide from the actin molecule. […]
For orientation: In an ELISA, binding on a coated surface is turned into a signal by an enzyme label.

The target in assay [2] is T2, CCT (chaperonin containing TCP-1) complex from mouse testis (mouse, UniProt P11983 1-556; P80314 2-535; P80318 1-545; P80315 1-539; P80316 2-541; P80317 …).
T2 construct: Hetero-oligomer: eight different subunits in each of two rings (double toroid, about 920 kDa), enriched from mouse testis 20S sucrose gradient fractions; Testis also holds CCTζ2; also called CCT complex; intact CCT
Nature of the assay: biotinylated peptide with CCT in solution, 6% native PAGE, blot probed with streptavidin/Neutravidin-HRP.

Turning to GGTTMYPGIADRMQK [substrate peptide 61], in assay [1], the “CCT binding to immobilised substrate peptide (410 nm absorbance reading)” value is “new protein interaction site”.

B1: peptide 8.6, biotin-SGSG-AAAAAQGVMVGMGQK (peptide)
peptide: Biotin-SGSGAAAAAQGVMVGMGQK-NH2
SMILES: CSCC[C@H](NC(=O)CNC(=O)[C@@H](NC(=O)[C@H](CCSC)NC(=O)[C@@H](NC(=O)CNC(=O)[C@H](CCC(N)=O)NC(=O)[C@H](C)NC(=O)[C@H](C)NC(=O)[C@H](C)NC(=O)[C@H](C)NC(=O)[C@H](C)NC(=O)CNC(=O)[C@H](CO)NC(=O)CNC(=O)[C@H](CO)NC(=O)CCCC[C@@H]1SC[C@@H]2NC(=O)N[C@@H]21)C(C)C)C(C)C)C(=O)NCC(=O)N[C@@H](CCC(N)=O)C(=O)N[C@@H](CCCCN)C(N)=O
notes: All five core residues replaced by alanine
For the molecule B1, in assay [2], the binding result is given as “no binding (tested: peptide 13.3 µM or 1.33 µM, CCT 70 nM)”.
